Paper PMC10397247

Legend:
Assay in all cases: two-hybrid library CCNG1;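 note: natural log of median RNA to DNA barcode read ratio; higher means stronger binding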
4H2576-bH = molecular target: T1, 4H2576-bH
T1 chain: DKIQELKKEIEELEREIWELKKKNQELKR

4H2610-bH = molecular target: T2, 4H2610-bH
T2 chain: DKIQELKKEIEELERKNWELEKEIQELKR

4H2618-bH = molecular target: T3, 4H2618-bH
T3 chain: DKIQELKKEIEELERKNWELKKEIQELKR

4H2667-bH = molecular target: T4, 4H2667-bH
T4 chain: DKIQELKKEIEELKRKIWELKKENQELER

4H2697-bH = molecular target: T5, 4H2697-bH
T5 chain: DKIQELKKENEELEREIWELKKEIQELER

4H2729-bH = molecular target: T6, 4H2729-bH
T6 chain: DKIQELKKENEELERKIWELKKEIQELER

4H3112-bH = molecular target: T7, 4H3112-bH
T7 chain: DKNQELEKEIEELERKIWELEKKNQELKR

4H3185-bH = molecular target: T8, 4H3185-bH
T8 chain: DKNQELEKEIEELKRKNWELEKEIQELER

4H3189-bH = molecular target: T9, 4H3189-bH
T9 chain: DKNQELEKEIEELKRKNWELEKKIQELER

4H331-bH = molecular target: T10, 4H331-bH
T10 chain: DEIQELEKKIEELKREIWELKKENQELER

4H3354-bH = molecular target: T11, 4H3354-bH
T11 chain: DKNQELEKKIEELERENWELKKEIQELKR

4H338-bH = molecular target: T12, 4H338-bH
T12 chain: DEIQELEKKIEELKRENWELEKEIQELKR

4H3427-bH = molecular target: T13, 4H3427-bH
T13 chain: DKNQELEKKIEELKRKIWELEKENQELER

4H3606-bH = molecular target: T14, 4H3606-bH
T14 chain: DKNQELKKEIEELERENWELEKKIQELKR

4H370-bH = molecular target: T15, 4H370-bH
T15 chain: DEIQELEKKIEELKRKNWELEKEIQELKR

4H3782-bH = molecular target: T16, 4H3782-bH
T16 chain: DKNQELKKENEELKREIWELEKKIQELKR

4H3843-bH = molecular target: T17, 4H3843-bH
T17 chain: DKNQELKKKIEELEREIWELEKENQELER

4H3855-bH = molecular target: T18, 4H3855-bH
T18 chain: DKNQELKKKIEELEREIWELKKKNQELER

4H4001-bH = molecular target: T19, 4H4001-bH
T19 chain: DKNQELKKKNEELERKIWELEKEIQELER

4H454-bH = molecular target: T20, 4H454-bH
T20 chain: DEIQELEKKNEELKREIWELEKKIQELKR

4H462-bH = molecular target: T21, 4H462-bH
T21 chain: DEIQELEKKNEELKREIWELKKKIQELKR

4H568-bH = molecular target: T22, 4H568-bH
T22 chain: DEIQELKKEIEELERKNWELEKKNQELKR

4H607-bH = molecular target: T23, 4H607-bH
T23 chain: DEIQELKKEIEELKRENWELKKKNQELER

4H687-bH = molecular target: T24, 4H687-bH
T24 chain: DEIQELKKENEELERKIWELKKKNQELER

4H717-bH = molecular target: T25, 4H717-bH
T25 chain: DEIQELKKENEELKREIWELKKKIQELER

4H72-bH = molecular target: T26, 4H72-bH
T26 chain: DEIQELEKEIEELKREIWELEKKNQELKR

4H754-bH = molecular target: T27, 4H754-bH
T27 chain: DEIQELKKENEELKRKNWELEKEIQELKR

4H797-bH = molecular target: T28, 4H797-bH
T28 chain: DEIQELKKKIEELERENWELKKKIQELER

4H883-bH = molecular target: T29, 4H883-bH
T29 chain: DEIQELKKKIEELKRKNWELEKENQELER

4H908-bH = molecular target: T30, 4H908-bH
T30 chain: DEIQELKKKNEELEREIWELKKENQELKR

4H918-bA = molecular target: T31, 4H918-bA
T31 chain: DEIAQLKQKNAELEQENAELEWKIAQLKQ

4H918-bH = molecular target: T32, 4H918-bH
T32 chain: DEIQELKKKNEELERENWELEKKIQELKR

4H953-bA = molecular target: T33, 4H953-bA
T33 chain: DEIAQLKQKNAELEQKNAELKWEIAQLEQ

4H953-bH = molecular target: T34, 4H953-bH
T34 chain: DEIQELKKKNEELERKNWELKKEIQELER

4H967-bH = molecular target: T35, 4H967-bH
T35 chain: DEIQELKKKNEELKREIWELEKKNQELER

4H363-bH = molecular target: T36, 4H363-bH
T36 chain: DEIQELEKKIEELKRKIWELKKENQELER

4H3907-bH = molecular target: T37, 4H3907-bH
T37 chain: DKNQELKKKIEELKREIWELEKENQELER

4H3961-bH = molecular target: T38, 4H3961-bH
T38 chain: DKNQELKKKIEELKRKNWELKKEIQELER

4H470-bH = molecular target: T39, 4H470-bH
T39 chain: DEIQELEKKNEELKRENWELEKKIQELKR

4H3632-bH = molecular target: T40, 4H3632-bH
T40 chain: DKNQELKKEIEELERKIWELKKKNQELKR

4H496-bH = molecular target: T41, 4H496-bH
T41 chain: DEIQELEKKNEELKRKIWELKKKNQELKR

4H342-bN = molecular target: T42, 4H342-bN
T42 chain: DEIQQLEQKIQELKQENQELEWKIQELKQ

4H3632-bN = molecular target: T43, 4H3632-bN
T43 chain: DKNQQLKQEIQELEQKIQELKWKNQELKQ

4H4001-bN = molecular target: T44, 4H4001-bN
T44 chain: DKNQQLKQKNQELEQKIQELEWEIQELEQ

4H48-bN = molecular target: T45, 4H48-bN
T45 chain: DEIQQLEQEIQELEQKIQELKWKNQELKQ

4H491-bN = molecular target: T46, 4H491-bN
T46 chain: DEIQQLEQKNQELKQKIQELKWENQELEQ

4H496-bN = molecular target: T47, 4H496-bN
T47 chain: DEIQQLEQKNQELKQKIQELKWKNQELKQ

B1: 4H2576-bH (peptide)
chain: DKIQELKKEIEELEREIWELKKKNQELKR
interaction score (4H2576-bH): 0.71
interaction score (4H2610-bH): -0.788
interaction score (4H2618-bH): 1.01
interaction score (4H2667-bH): 0.467
interaction score (4H2697-bH): -0.201
interaction score (4H2729-bH): 1.93
interaction score (4H3112-bH): 0.913
interaction score (4H3185-bH): 0.137
interaction score (4H3189-bH): 0.969
interaction score (4H331-bH): 1.97
interaction score (4H3354-bH): -0.952
interaction score (4H338-bH): 0.794
interaction score (4H3427-bH): 1.73
interaction score (4H3606-bH): -2.37
interaction score (4H370-bH): 1.62
interaction score (4H3782-bH): -0.128
interaction score (4H3843-bH): 1.11
interaction score (4H3855-bH): 0.305
interaction score (4H4001-bH): 1.28
interaction score (4H454-bH): 1.67
interaction score (4H462-bH): 0.615
interaction score (4H568-bH): 0.102
interaction score (4H607-bH): -1.37
interaction score (4H687-bH): -0.475
interaction score (4H717-bH): -1.86
interaction score (4H72-bH): 0.621
interaction score (4H754-bH): -2.65
interaction score (4H797-bH): -0.961
interaction score (4H883-bH): -0.465
interaction score (4H908-bH): -1.34
interaction score (4H918-bA): -0.341
interaction score (4H918-bH): -0.721
interaction score (4H953-bA): -1.63
interaction score (4H953-bH): -0.152
interaction score (4H967-bH): -3.3

B2: 4H363-bH (peptide)
chain: DEIQELEKKIEELKRKIWELKKENQELER
interaction score (4H363-bH): 1.36
interaction score (4H3907-bH): 1.26
interaction score (4H3961-bH): 0.532
interaction score (4H470-bH): 0.465

B3: 4H2610-bH (peptide)
chain: DKIQELKKEIEELERKNWELEKEIQELKR
interaction score (4H2610-bH): 1.39
interaction score (4H2618-bH): -2.22
interaction score (4H2667-bH): -0.792
interaction score (4H2697-bH): -0.13
interaction score (4H3189-bH): 0.354
interaction score (4H331-bH): -0.139
interaction score (4H3606-bH): 0.997
interaction score (4H370-bH): 1.24
interaction score (4H3782-bH): -0.423
interaction score (4H3843-bH): 0.428
interaction score (4H4001-bH): 0.47
interaction score (4H462-bH): 1.13
interaction score (4H568-bH): 1.22
interaction score (4H607-bH): -0.288
interaction score (4H687-bH): 0.522
interaction score (4H72-bH): 0.879
interaction score (4H797-bH): -0.388
interaction score (4H883-bH): 1.68
interaction score (4H918-bH): -0.153
interaction score (4H953-bH): -1.02

B4: 4H3632-bH (peptide)
chain: DKNQELKKEIEELERKIWELKKKNQELKR
interaction score (4H3632-bH): -0.234
interaction score (4H496-bH): -2.56

B5: 4H342-bN (peptide)
chain: DEIQQLEQKIQELKQENQELEWKIQELKQ
interaction score (4H342-bN): 1.33
interaction score (4H3632-bN): 0.807
interaction score (4H4001-bN): -0.0564
interaction score (4H48-bN): -1.99
interaction score (4H491-bN): 1.47
interaction score (4H496-bN): 1.56
